Drawing on patent publication US20220289810A1, this text covers biological activity in vitro by stimulation of luciferase activity, Estimated potency in vitro (sample 5G) and in vitro FSH activity (CRE-luciferase reporter, HEK 293T cells with bovine FSH receptor); affinity purified construct #5 from transiently transfected CHO cells for 3 substances.

This assay addresses bovine FSH hormone receptor expressed on HEK 293T cells (bovine) (UniProt P35376). Put plainly: cell-based or functional assay.
Chain of UniProt P35376 (P35376 18-695): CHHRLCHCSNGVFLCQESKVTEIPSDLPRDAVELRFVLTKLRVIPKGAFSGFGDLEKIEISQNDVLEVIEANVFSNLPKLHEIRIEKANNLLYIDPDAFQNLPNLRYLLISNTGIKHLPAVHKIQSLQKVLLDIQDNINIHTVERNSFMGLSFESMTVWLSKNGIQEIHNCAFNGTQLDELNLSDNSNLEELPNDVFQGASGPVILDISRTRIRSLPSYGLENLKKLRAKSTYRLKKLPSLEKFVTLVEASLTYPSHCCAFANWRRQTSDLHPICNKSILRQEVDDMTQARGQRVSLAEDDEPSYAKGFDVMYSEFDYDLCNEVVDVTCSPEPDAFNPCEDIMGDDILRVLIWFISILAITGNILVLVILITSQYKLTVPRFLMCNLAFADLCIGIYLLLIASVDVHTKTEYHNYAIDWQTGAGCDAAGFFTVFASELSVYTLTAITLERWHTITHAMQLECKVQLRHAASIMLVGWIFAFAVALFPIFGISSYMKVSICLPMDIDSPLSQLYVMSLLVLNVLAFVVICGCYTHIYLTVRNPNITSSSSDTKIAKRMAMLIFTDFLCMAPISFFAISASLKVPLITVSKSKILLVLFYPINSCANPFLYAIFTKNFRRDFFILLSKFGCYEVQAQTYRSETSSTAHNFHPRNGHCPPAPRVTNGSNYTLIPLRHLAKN

Substance “recombinant single chain equine chorionic gonadotropin CTP-BetaCTP-CTP-Alpha (CONSTRUCT #6) (ligand)” yielded a biological activity in vitro by stimulation of luciferase activity of 4770 IU/mg.
For “recombinant single chain equine chorionic gonadotropin NTP-BetaCTP-CTP-Alpha (CONSTRUCT #5) (ligand)”, the Estimated potency in vitro (sample 5G) was 6200 IU/mg; the biological activity in vitro by stimulation of luciferase activity worked out at 4010 IU/mg; the in vitro FSH activity (CRE-luciferase reporter, HEK 293T cells with bovine FSH receptor); affinity purified construct #5 from transiently transfected CHO cells came to 61 IU.
“recombinant single chain equine chorionic gonadotropin BetaCTP-CTP-Alpha (CONSTRUCT #4) (ligand)”: the biological activity in vitro by stimulation of luciferase activity worked out at 13300 IU/mg.
